This assay deals with c-Myc (human) (UniProt P01106). The assay can be described thus: cell-based or functional assay.
c-Myc (human), sequence (P01106 16-454 limits assumed): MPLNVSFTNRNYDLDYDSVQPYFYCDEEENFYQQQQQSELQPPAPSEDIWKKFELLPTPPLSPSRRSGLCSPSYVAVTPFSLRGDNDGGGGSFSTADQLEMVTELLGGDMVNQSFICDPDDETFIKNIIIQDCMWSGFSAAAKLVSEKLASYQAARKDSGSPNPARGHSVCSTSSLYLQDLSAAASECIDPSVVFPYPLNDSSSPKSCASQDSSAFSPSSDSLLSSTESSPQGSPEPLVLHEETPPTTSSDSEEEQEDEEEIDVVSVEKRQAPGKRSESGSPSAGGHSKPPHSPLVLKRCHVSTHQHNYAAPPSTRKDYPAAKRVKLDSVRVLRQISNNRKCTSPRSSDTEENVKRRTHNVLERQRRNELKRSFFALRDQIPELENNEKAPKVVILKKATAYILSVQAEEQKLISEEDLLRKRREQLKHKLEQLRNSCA

For “ATG99 polypeptide (murine clone #99 ORF with initiator methionine, vector neoCMV-ATG99) (from UniProt O08539 310-565)”, the focus formation in the Ras cooperation assay (myc + ras, rat embryo fibroblasts) was found to be 2.4 fold. In the case of “human Bin1 (Box-dependent Myc-Interacting protein-1), full-length 451 amino acid product of cDNA p99f (from UniProt O00499 9-593)”, the focus formation in the Ras cooperation assay (MYC + RAS, rat embryo fibroblasts) came out at 7 fold and the fold decrease in focus formation by MYC (MYC + activated RAS, rat embryo fibroblasts) was found to be 6 fold.

The record behind these values is patent US20030166021A1.
